Measured values reported in doi:10.1101/2020.08.15.252130.
Like-named read-outs stand apart in the source and are kept apart here.

Experiments:
Experiment in all cases: NMR
LS2 RRM2 = LS2 RRM2 (Drosophila melanogaster, UniProt Q9W1T4 242-319)
LS2 RRM1 [1] = biological target: T1, LS2 RRM1 (Drosophila melanogaster, UniProt Q9W1T4 110-204)
LS2 RRM1,2 = LS2 RRM1,2 (Drosophila melanogaster, UniProt Q9W1T4 110-325)
LS2 RRM1 [2] = biological target: T1, LS2 RRM1; remark: listed apart in the source
LS2 linker-RRM2 = biological target: T2, LS2 linker-RRM2 (Drosophila melanogaster, UniProt Q9W1T4 204-325)
T2 sequence: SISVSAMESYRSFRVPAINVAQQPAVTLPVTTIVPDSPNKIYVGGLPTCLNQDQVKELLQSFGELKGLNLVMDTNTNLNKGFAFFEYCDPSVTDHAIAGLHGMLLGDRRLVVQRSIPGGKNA

## GGGUGGUGGAGGGG (structured_RNA) [14-mer]
LS2 RRM2
  binding result: no binding
LS2 RRM1 [1]
  binding result: binds

## GGUGGUGG (structured_RNA) [8-mer]
LS2 RRM1 [1]
  binding result: binds

## CGUAUGA (ssRNA) [7-mer (3' end of 21-mer)]
LS2 RRM2
  binding result: no binding

## GGGGAGGAGGGGGGCGUAUGA (structured_RNA) [21-mer G4 RNA]
LS2 RRM1,2
  binding result: binds
LS2 RRM2
  binding result: binds
LS2 RRM1 [2]
  binding result: binds
LS2 linker-RRM2
  binding result: binds
